Source: patent US11781164B2, “Demethylation of reticuline and derivatives thereof with fungal cytochrome P450” (priority 2017, dated 2023)

Tests used:
[1] = test system: oripavine; assay: Bioconversion of oripavine (N-demethylation to nororipavine) by S. cerevisiae expressing cytochrome P450s and CPRs, LC-MS
[2] = test system: thebaine; assay: Bioconversion of thebaine (N-demethylation to northebaine) by S. cerevisiae expressing cytochrome P450s and CPRs, LC-MS; details: for support of N-demethylase activity of P450_DN15259_c0_g1_i7_A by CPR (northebaine): 0.1 M potassium phosphate buffer pH 7, 72 h
[3] = test system: thebaine; assay: Demethylation of thebaine by new cytochrome P450 fungal and plant homologs co-expressed with CPRs in S. cerevisiae; details: 0.5 mM thebaine, SC or DELFT media pH 7, 72 h, 30° C.; co-expressed with Cel_CPR_co, Tp_CPR_5866, Tp_CPR_DN10898 or POR1

B1: P450_DN15259_c0_g1_i7_A: native cytochrome P450 clone from Thamnostylum piriforme (plasmid pEV31541) (protein)
chain: MDNKAILRQAVYSYRYHIGIAAAVAIVCQQIYSRVFRVPKNLRHIPAISYWSQMKALLKKEAITPRTKRLVYPLLSKANGLYLNRMPFDWTVYVANPMIAKTVLFKPEFATKMSLIGSFSDDSAVLQFVGKDNIAVSNGHQWKKQRKIMNPAFHRSMPVALFASLMPKVFCMIDETQENGDSVGAIQLMQALTLEALGKAVFGFDFGGLDDKNSVWVKTYNEVFKAFTDFTVFLPRLNAFLRRVSPPHRSRHREMLKLIGLLDEMVDKKRQALLDAKNKSVEKVPEHEKDLLTLMLEAEMDGEGVWEKEELRHNIGILFVAGHDTTANSLAFAVYNLAVNKDVQDKARKEIIDLLGDEPKDVAPTLDDCKHMDYIDMIIKETLRMNAPANDLLARIASEDLELGGVLIPKGTMVSVDFHALHLHPDLWEDSERFNPQRFQDNGEHSKHEGVTWVPFSGGSRQCIGINFSMMEQRVALSTLLRKYEWELPADSIHRNGLVMDQPFSFAPSSLKIKFKKRY
modifications: Thamnostylum piriforme
[1]; detected only when feeding 0.5 mM oripavine, pH 7, 72 h, with Cel_CPR_co, CPR_DN5866_c0_g1_Cd9 or CPR_DN10898_c0_g1_1A
  oripavine N-demethylation (nororipavine): able to N-demethylate oripavine
[1]; thebaine or oripavine fed, pH 7, 72 h
  nororipavine titers lower than those of northebaine: 20 fold
[2]; 0.1 mM thebaine, non-buffered SC-His-Leu-Ura, with CPRs from C. elegans, G. fujikuroi and S. cerevisiae, 72 h, 30° C.
  thebaine N-demethylation (northebaine), screening of T. piriforme P450 candidates: identified as a thebaine N-demethylase
[2]; 0.1 vs 0.5 mM thebaine, pH 7, 72 h, with Cel_CPR_co, CPR_DN5866_c0_g1_Cd9 or CPR_DN10898_c0_g1_1A
  increase in northebaine titers on increasing thebaine concentration to 0.5 mM: 50%

B2: Cel_CPR_co: codon-optimized cytochrome P450 reductase from Cunninghamella elegans (protein)
chain: MAQQTPAVIDTLDLILLGSIGLGTIAWFTRRQLSERLFGTGQSNATPKPTTPQAPKRERNFVKVMEQQGRKVIFFYGSQTGTAEDFASRLAKQCSQKYGVSCMTADIEMYDLSYLDTLSEDSLVCFVMATYGEGEPTDNAVDFWEQFITDESPVFSEGGETLENLRYLMFGLGNKTYEHYNAVARILDKKLTGLGAKRIGERGEGDDDGSLEEDFLAWQESMWPTFCDALGVDENNAQQGPRQASYSVDELKEEYKNDDVYFGELGTKSKDSSRVVYDAKRPYNAPITTRELFNSSERHCLHVDIDISGTNLSYQTGDHVAMWPTNNEDEVLRLANILGLQDKLDNVISVKAIDPAAPKQHPFPVPTTYRAIFRHYIDICAPASRQSLMSFVEFAPTDSAKDLLKLLATDKDEYRLKVGEAVRNLGEVLELVSGNDKDTQPGSFTSVPFDLIVETIPRLQPRYYSISSSSKENSSIISATCVTLAYQPDPTPDRTVYGVNTNFLYRIHTQSSDNDIQGLPKYDLAGPRKAFLNEQGQSHKLPIHIRRSQFKLPRNTSCPVIMIGPGTGVAPFRGFVRERALQKKEGKSVGPTVLFFGNRHSEHDFLYSDEWPELFNTLGDDSKLITAFSRETEHKVYVQHRLEENGKDIWQLLEKGAYIYVCGDARNMARDVNQTFVNLAMEYGEKTEQKALDYVKSLRNTGRYQEDVWS
modifications: codon-optimized; Cunninghamella elegans
[2]; 0.1 mM thebaine, 30° C.
  support of N-demethylase activity of P450_DN15259_c0_g1_i7_A by CPR (northebaine): found to support N-demethylase activity

B3: CPR_DN5866_c0_g1_Cd9: native cytochrome P450 reductase clone from T. piriforme, day 9 cDNA (pEV31725) (protein)
chain: MAQSSPALLDSLDIVFLGTIGLGTIAWFARRQIAERIFGSKDDANKNVGNGNAPTAPKRERNFVKVMQEQGRKVIFFYGSQTGTAEDYASRLAKECSQKYGVSCMTADIELYDLTYLDTVPEDFLVFFIMATYGEGEPTDNAVDFWEQLTEEEPQFSEGDTLGNLRYVVFGLGNKTYEHYNEVARRMDKLLTKLGAKRIGERGEGDDDASLEEDFLAWQDSMWPAFCDALGVDESNGSSGPRQAMYAVEELEGQEAVYLGELGEKPKEGVKVVYDAKRPYNAPLVSQDLFKNTDRHCLHIDIDVSDSNLSYQTGDHIAIWPTNSDDEVARLASLLGLTDKLDTSVMVKAIDSTASKQYPFPVPATYRSIFRHYLDICAPASRQTLMSLVEYAPTEASKEALRLLSKDKDEYRLKVGEAVRNLGEVLELAAGADARPGLFSTVPFDLIVESVSRLQPRYYSISSSAKESPKVIAVTAVTLTYNPDPTPERTVYGVNTNYLWQIHAAKHNVNDGQRYPTYDLAGPRNALQGAKVPVHIRRSQFKLPRNPTVPVIMVGPGTGVAPFRGFVRERAAQKTDGKPVGPTLLFFGCRNSQQDFLYKDEWPELFATLGDESRIVTAFSRETPQKVYVQHRLQENGEELWNLLQKGAYIYVCGDAKNMARDVNQTFVNFAIEFGGQTEEKAHDYVKNLRNSGRYQEDVWS
modifications: Thamnostylum piriforme
[2]; 0.1 mM thebaine, 30° C.
  support of N-demethylase activity of P450_DN15259_c0_g1_i7_A by CPR (northebaine): yielded more northebaine

B4: LCOR_09548_co: codon-optimized putative cytochrome P450 A0A068S8J3 from Lichtheimia corymbifera (protein, listed as Lichtheimia corymbifera)
chain: MSSLNILSLLDNKHINAFFDNPSRAQSGIIAGSVAIVSLCAAYSLGSRLRGSNNGVPLVPYTFPIIGSTKEYQADPQAFIEKWTAKLGPVFRVHLFGRIHTVVSDRYVREVFLNNDFDFLKGTGKRFDTLLLTDTTLEDVDIEVFRTVVMKHLTKEMKHYTPRVVEHLTAGGDEKLGDATEPKELVHLFPLLQHMVAKASASIFVGTELAADDAVVETCKNIAIDIGSELGPSSYIMDAFPSLARLRMWYIGKYGKAINKHRQHLLHALGPVIDKRLAAAEKGGDWDRPQDILQDIIETINLTLDNPKRHILPVKWLLALFFASIHTTSENSTIVLYRIMQNPEIIDVLLEEQNEILEKHYGTNIDYSDTTKLFTGEVIKEMVKLDSVCREAMRSRNSYLELPHTYVGKSRITLSCGAVIEPGHDVLINMWGNHRDAKIQRDTIGDHHDFKPFRFVGLDRQSTKIGDDFLMFGQGRHACPGRWFAIQEIKTIVSVLIRYYKLTPKGPITFPTHPRMPMPTGEVIIQRRQE
modifications: codon-optimized
[1]; 0.5 mM oripavine, pH 7, 72 h, co-expressed with CPR_DN5866_c0_g1_i1_Cd9, CPR_DN10898_c0_g1_i1_1A or Cel_CPR_co
  nororipavine production when oripavine was administered: capable of producing nororipavine

B5: CPR_DN10898_c0_g1_1A: native cytochrome P450 reductase clone from T. piriforme (pEV31730) (protein)
chain: MSKKPTTFAISPLDLLLLGTLGIGALLYITRKLRAAPPPAAGDAARPSDKAPSNKPERNFVKLMEQQKRRVIFFYGSQTGTAEDYASRLAKESSQKYGVSSMAADIELYDLSYLDTVPEDKLVVFVMATYGEGEPTDNAVDFWETLTDEAPMFSLGEELAPLRNLNYIVFGLGNKTYEHYNEVARVLDKRLAALGATRHGVRGEGDDDASLEEDFLAWQEDMWPAFCAALNVDESNAQAGPRQAMYGVKELEGHDENGLFLGELGEWLQPEQLQKQTAVHDAKHPYLAPIAASRDLFSHAADRHCLHLEVDIASSNLTYQTGDHIAIWPTNNDVEVLRLATVLGLADKLDTAIMVKALDSAASKKYPFPVPTTYRAAFKHYLDICSPASRQTLISLVDYAPTASSKDALHKLATDKDAYKTQVSEAARNLAEVLELCQDDEGTTAAPGFFSTVPFDLIVESVSRLQPRYYSISSSSLTSPKSVAVTAVTLSYQPSTTKSRTVYGVNTNYLWRIHAPHDASVPAYDLDGPRNTLQGKKVPVHIRRSTFKLPRNTKLPVIMVGPGTGVAPFRGFIHDRVHQKQSGKEVGPTVLFYGCRHSKQDFLYAEEWPALFEALGEGSQLITAFSRESAQKVYVQHRLKEHGEQMWKYIEQGAYIYVCGDAKNMARDVQQTFIEFAQALGNKTESQAQDYVKNLRNTGRYQEDVWS
modifications: Thamnostylum piriforme
[2]; 0.1 mM thebaine, 30° C.
  support of N-demethylase activity of P450_DN15259_c0_g1_i7_A by CPR (northebaine): yielded more northebaine

B6: CYPDN7: cytochrome P450 homolog I1CBZ0 from Rhizopus delemar, codon-optimized (protein)
chain: MALEGALPLFQKRSKSSYIVAAILLITVKQIYSFFRVPTNLRHLPCVSFFAMAKSLLTCEPPYNRFKRITFPAIQEGNGFYVSKIPTGWTVYVANPVAAKQLLLKSNNFPKSHYGLDTIGEKSTAVQFVGRDNVVLSNGEIWKKQRKIMNPVFHRSMPIKTVASLVPLLFSAIEEANGRIMITPKMKDFTLDALGLTIFDFDFKALQGDPDNWTSIYRLITRSIFDPISYVFCALEPLLVYVYPKRRRSVDAVAKINAKFDQVISKKREELQNGIFSNKPDNEKDLVTLMLEAGMQEDVSITNEELRHNMAVLFLAGHDSTSNTLSFCLYHLAKNKRAQQKLREEIINILGDDDIDIVPSLEELKQMKYMNMVIKETLRLGMPLDLLTPRKTVEDTFVADTFIPKDTVIAVDAGALHRDPRSWKDPDEFVPERFEDDGEQNSHEGLTWVPFSNGTRQCIGMNFSLMEQRLTLTMLLRKYEVDLPKDSIHYDHIIYEQPSYVCPESLELIFTKRY
modifications: Rhizopus delemar
[3]
  Northebaine production: +

B7: P450_DN12791_c0_g1_C: native cytochrome P450 clone from Thamnostylum piriforme (plasmid pEV31522) (protein)
chain: MAILQNLVLQSDQRHLGVVTAAVFLSAYALYRHESKKELGNECPTVPYTNPMFGSTDEYRKNPAAFVEKWSAALGPVFRVHIFGRMQTVVSGRYVREVLFNDNFSFVEGIRTRFDLRLLTGIPNSHLNDKDVREVVVKSLTAQMKKYTPRAVHYLSVGLQEALGDLKDPRTLDNLFLTVQNMVAKASASIFVGEELCNNIELVDTFKHVTSDIGSEIRLDNTWLEFFKTINQIRMWYVGKHSPRVTKHRRQLIQAMAPEIDRRLQGLAGNDPSWTRPEDILQEIMENYPSPSTVPADIYTYYANWMIVLIFASVHTTTEHATIVLYRLLQQPELIDELLQEQKEALGQGTVFTGEVIRKLVKLDSVCRESLRIKNEYFGLPHRNMSHENISLSNGVVIKPGDNVMLNVWTNHHDSDLQKDVHGNHDKFEPFRYVNADRPATKIGDDYLIFGEGKHACPGRWFALQEIKTIVSVLIRDYTLTPCGPIVFPSGTSTGIPSGEVTIQRKSEV
modifications: Thamnostylum piriforme
[1]; 0.5 mM oripavine, pH 7, co-expressed with Cel_CPR_co, 72 h
  nororipavine titers: highest nororipavine titers
[1]; 0.5 mM oripavine, pH 7, with CPRs from C. elegans, G. fujikuroi and S. cerevisiae, 72 h
  oripavine N-demethylation (nororipavine), screening of T. piriforme P450 candidates: identified as an oripavine N-demethylase
